Laboratory results published in US10570431B2, “Compositions comprising a polypeptide having cellulolytic enhancing activity and a heterocyclic compound and uses thereof” (priority 2013, dated 2020).
Like-named read-outs stand apart in the source and are kept apart here.

Assays:
Format in all cases: biochemical
[1] = system: Trichoderma reesei cellulase composition; details: for heterocyclic compound effect(no GH61): milled washed PCS
[2] = system: Trichoderma reesei cellulase composition; assay: Hydrolysis of AVICEL (microcrystalline cellulose) by the T. reesei cellulase composition, with/without GH61 polypeptide or heterocyclic compound; details: for heterocyclic compound effect(no GH61) (ratio of percent conversion with compound to without) / heterocyclic compound effect(no GH61): AVICEL; for heterocyclic compound effect(no GH61) (ratio of percent conversion with compound to without): compound 5 mM, 1, 3 and 7 days; for heterocyclic compound effect(no GH61): compound 10 mM, 1 and 3 days; for Percent conversion of AVICEL: no heterocyclic compound
[3] = system: Trichoderma reesei cellulase composition; details: for heterocyclic compound effect(no GH61): milled unwashed PCS, compound 5 mM; for Percent conversion of milled unwashed PCS: GH61 present (0.2 mg/g cellulose); for Percent conversion of milled unwashed PCS / Enhancement of hydrolysis of milled unwashed PCS by the presence of GH61 polypeptide: no heterocyclic compound
[4] = system: Penicillium pinophilum GH61A polypeptide; details: AVICEL; ascorbic acid 5 mM; P. pinophilum GH61A 0.4 or 2 mg per gram cellulose; 1, 3 and 7 days
[5] = target: Aspergillus fumigatus GH61B polypeptide (Aspergillus fumigatus, UniProt Q4WP32); assay: Effect of ascorbic acid on A. fumigatus GH61B polypeptide during hydrolysis of AVICEL; details: ascorbic acid 5 mM, A. fumigatus GH61B 0.4 or 2 mg per gram cellulose, 1, 3 and 7 days
Chain of Aspergillus fumigatus GH61B polypeptide (Q4WP32 22-250): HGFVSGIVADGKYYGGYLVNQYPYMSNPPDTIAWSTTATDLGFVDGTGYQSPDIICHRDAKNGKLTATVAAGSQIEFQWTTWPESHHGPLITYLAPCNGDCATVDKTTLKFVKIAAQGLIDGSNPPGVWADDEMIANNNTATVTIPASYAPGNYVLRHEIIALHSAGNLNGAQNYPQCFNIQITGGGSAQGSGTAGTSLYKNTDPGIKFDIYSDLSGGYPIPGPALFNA

[6] = system: Talaromyces stipitatus GH61A polypeptide; details: AVICEL; ascorbic acid 5 mM; T. stipitatus GH61A 0.4 or 2 mg per gram cellulose; 1, 3 and 7 days
[7] = system: Thielavia terrestris GH61E polypeptide; assay: Effect of ascorbic acid on T. terrestris GH61E polypeptide during hydrolysis of AVICEL; details: ascorbic acid 5 mM, T. terrestris GH61E 0.4 or 2 mg per gram cellulose, 1, 3 and 7 days
[8] = target: Trichoderma reesei GH61B polypeptide (Trichoderma reesei, UniProt Q7Z9M7); assay: Effect of ascorbic acid on T. reesei GH61B polypeptide during hydrolysis of AVICEL; details: ascorbic acid 5 mM
[9] = compound 10 mM, cellulase 2 mg per g cellulose, especially at day 3
[10] = cellulase 2 mg per g cellulose, 1, 3 and 7 days

CC1=C(O)C(=O)CO1 [4-hydroxy-5-methyl-3-furanone]
heterocyclic compound effect(no GH61) [1, 9]: < 1

O=C1OC(C(O)CO)C(=O)C1=O (stereo not shown) [dehydroascorbic acid, [1,2-dihydroxyethyl]furan-2,3,4(5H)-trione]
heterocyclic compound effect(no GH61) (ratio of percent conversion with compound to without) [2]: very slightly decreased | heterocyclic compound effect(no GH61) [2]: very slightly decreased the day 3 hydrolysis | heterocyclic compound effect(no GH61) ([3]; mid to late stages of hydrolysis): greater than 1 | heterocyclic compound effect(no GH61) ([1]; compound 5 mM, 1, 3 and 7 days): very slightly decreased | heterocyclic compound effect(no GH61) [1, 9]: < 1

O=C(CO)c1ccccc1 [2-hydroxyacetophenone]
heterocyclic compound effect(no GH61) (ratio of percent conversion with compound to without) [2]: less than 1 | heterocyclic compound effect(no GH61) [2]: significantly decreased the day 3 hydrolysis | heterocyclic compound effect(no GH61) [3, 10]: greater than 1 | heterocyclic compound effect(no GH61) ([1]; compound 5 mM, 1, 3 and 7 days): slightly decreased

O=C1OC(C(O)CO)C(O)=C1O (stereo not shown) [ascorbic acid, (1,2-dihydroxyethyl)-3,4-dihydroxyfuran-2(5H)-one]
GH61 effect in the presence of heterocyclic compound [4]: greater than 1 | heterocyclic compound effect(+GH61) [4]: increased | heterocyclic compound effect(no GH61) [3, 10]: greater than 1 | GH61 effect in the presence of heterocyclic compound [5]: greater than 1 | heterocyclic compound effect(+GH61) [5]: increased | GH61 effect in the presence of heterocyclic compound [6]: greater than 1 | heterocyclic compound effect(+GH61) [6]: increased | GH61 effect in the presence of heterocyclic compound [7]: greater than 1 | heterocyclic compound effect(+GH61) [7]: increased | heterocyclic compound effect(no GH61) ([1]; compound 5 mM, 1, 3 and 7 days): slightly decreased | heterocyclic compound effect(+GH61) ([8]; T. reesei GH61B 2 mg per g cellulose): increased | GH61 effect in the presence of heterocyclic compound ([8]; T. reesei GH61B at high level (2 mg per g cellulose)): greater than 1

B1: Thielavia terrestris GH61E polypeptide: GH61E polypeptide having cellulolytic enhancing activity (SEQ ID NO: 8), recombinantly prepared using Trichoderma reesei RutC30 as a host (protein, listed as Thielavia terrestris)
chain: MLANGAIVFLAAALGVSGHYTWPRVNDGADWQQVRKADNWQDNGYVGDVTSPQIRCFQATPSPAPSVLNTTAGSTVTYWANPDVYHPGPVQFYMARVPDGEDINSWNGDGAVWFKVYEDHPTFGAQLTWPSTGKSSFAVPIPPCIKSGYYLLRAEQIGLHVAQSVGGAQFYISCAQLSVTGGGSTEPPNKVAFPGAYSATDPGILINIYYPVPTSYQNPGPAVFSC
Percent conversion of AVICEL ([2]; 1 day, GH61 present, one experiment, 19.5±0.2% in the absence of GH61): 20.5±0.5% | Percent conversion of AVICEL ([2]; 3 days, GH61 present, one experiment, 27±1% in the absence of GH61): 27±1% | Percent conversion of AVICEL ([2]; 7 days, GH61 present, one experiment, 43±1% in the absence of GH61): 43.0±0.3%

B2: Trichoderma reesei GH61B polypeptide: GH61B polypeptide having cellulolytic enhancing activity (SEQ ID NO: 16), recombinantly prepared using Aspergillus oryzae JaL250 as a host (protein, listed as Trichoderma reesei)
chain: MKSCAILAALGCLAGSVLGHGQVQNFTINGQYNQGFILDYYYQKQNTGHFPNVAGWYAEDLDLGFISPDQYTTPDIVCHKNAAPGAISATAAAGSNIVFQWGPGVWPHPYGPIVTYVVECSGSCTTVNKNNLRWVKIQEAGINYNTQVWAQQDLINQGNKWTVKIPSSLRPGNYVFRHELLAAHGASSANGMQNYPQCVNIAVTGSGTKALPAGTPATQLYKPTDPGILFNPYTTITSYTIPGPALWQG
Percent conversion of AVICEL ([2]; 1 day, GH61 present, one experiment, 13.7±0.6% in the absence of GH61): 13.5±0.4% | Percent conversion of AVICEL ([2]; 3 days, GH61 present, one experiment, 28.6±0.4% in the absence of GH61): 29±2% | Percent conversion of AVICEL ([2]; 7 days, GH61 present, one experiment, 44±1% in the absence of GH61): 44±2%

B3: T. aurantiacus GH61A polypeptide: GH61A polypeptide having cellulolytic enhancing activity (SEQ ID NO: 14), recombinantly prepared using Aspergillus oryzae JaL250 as a host (protein, listed as Thermoascus aurantiacus)
chain: MSFSKIIATAGVLASASLVAGHGFVQNIVIDGKYYGGYLVNQYPYMSNPPEVIAWSTTATDLGFVDGTGYQTPDIICHRGAKPGALTAPVSPGGTVELQWTPWPDSHHGPVINYLAPCNGDCSTVDKTQLEFFKIAESGLINDDNPPGIWASDNLIAANNSWTVTIPTTIAPGNYVLRHEIIALHSAQNQDGAQNYPQCINLQVTGGGSDNPAGTLGTALYHDTDPGILINIYQKLSSYIIPGPPLYTG
Percent conversion of AVICEL ([2]; 1 day, GH61 polypeptide present (0.4 mg per g cellulose), 16±1% in the absence of GH61): 16±1% | Percent conversion of AVICEL ([2]; 3 days, GH61 polypeptide present (0.4 mg per g cellulose), 31±4% in the absence of GH61): 30±4% | Percent conversion of AVICEL ([2]; 7 days, GH61 polypeptide present (0.4 mg per g cellulose), 45±3% in the absence of GH61): 45±4% | Percent conversion of milled unwashed PCS ([3]; 1 day, cellulase 2 mg per g cellulose, 18.7±0.1% in the absence of GH61): 22.2±0.1% | Enhancement of hydrolysis of milled unwashed PCS by the presence of GH61 polypeptide ([3]; 1 day): 19% | Percent conversion of milled unwashed PCS ([3]; 3 days, cellulase 2 mg per g cellulose, 28.2±0.3% in the absence of GH61): 34.3±0.3% | Enhancement of hydrolysis of milled unwashed PCS by the presence of GH61 polypeptide ([3]; 3 days): 21% | Percent conversion of milled unwashed PCS ([3]; 7 days, cellulase 2 mg per g cellulose, 36.9±0.3% in the absence of GH61): 44.0±0.2% | Enhancement of hydrolysis of milled unwashed PCS by the presence of GH61 polypeptide ([3]; 7 days): 19% | Enhancement of hydrolysis of milled washed PCS by the presence of GH61 polypeptide ([1]; 1 day, no heterocyclic compound): 14% | Enhancement of hydrolysis of milled washed PCS by the presence of GH61 polypeptide ([1]; 3 days, no heterocyclic compound): 31% | Enhancement of hydrolysis of milled washed PCS by the presence of GH61 polypeptide ([1]; 7 days, no heterocyclic compound): 31% | Percent conversion of milled washed PCS ([1]; day 1, GH61 present (0.4 mg per g cellulose), cellulase 4 mg per g cellulose, no heterocyclic compound, 37±1% in the absence of GH61): 42±1% | Percent conversion of milled washed PCS ([1]; day 1, cellulase 2 mg per g cellulose, GH61 at 10% (w/w) of the cellulase composition, 24±0.7% in the absence of GH61): 27±0.8% | Percent conversion of milled washed PCS ([1]; day 1, cellulase 2 mg per g cellulose, GH61 at 25% (w/w) of the cellulase composition, 24±0.7% in the absence of GH61): 27±0.8% | Percent conversion of milled washed PCS ([1]; day 1, cellulase 2 mg per g cellulose, GH61 at 50% (w/w) of the cellulase composition, 24±0.7% in the absence of GH61): 27±0.8% | Percent conversion of milled washed PCS ([1]; day 3, GH61 present (0.4 mg per g cellulose), cellulase 4 mg per g cellulose, no heterocyclic compound, 55±1% in the absence of GH61): 72±1% | Percent conversion of milled washed PCS ([1]; day 3, cellulase 2 mg per g cellulose, GH61 at 10% (w/w) of the cellulase composition, 41±2% in the absence of GH61): 55±3% | Percent conversion of milled washed PCS ([1]; day 3, cellulase 2 mg per g cellulose, GH61 at 25% (w/w) of the cellulase composition, 41±2% in the absence of GH61): 57±0.5% | Percent conversion of milled washed PCS ([1]; day 3, cellulase 2 mg per g cellulose, GH61 at 50% (w/w) of the cellulase composition, 41±2% in the absence of GH61): 59±2% | Percent conversion of milled washed PCS ([1]; day 7, GH61 present (0.4 mg per g cellulose), cellulase 4 mg per g cellulose, no heterocyclic compound, 67±0.2% in the absence of GH61): 88±2%
